Patent publication US20120014885A1 (DANISCO US, published 2012)
Ends that are not written are not given here.

B1: SEQ ID NO 1 (peptide)
peptide: YNLYGWT
notes: Clone of the PhD C7C library (NEB): the 7-mer stands between two cysteines on M13 phage; tested as whole phage; also called YNLYGWT
B2: BLA (enzyme)
chain: TPVSEKQLAEVVANTITPLMKAQSVPGMAVAVIYQGKPHYYTFGKADIAANKPVTPQTLFELGSISKTFTGVLGGDAIARGEISLDDAVTRYWPQLTGKQWQGIRMLDLATYTAGGLPLQVPDEVTDNASLLRFYQNWQPQWKPGTTRLYANASIGLFGALAVKPSGMPYEQAMTTRVLKPLKLDHTWINVPKAEEAHYAWGYRDGKAVRVSPGMLDAQAYGVKTNVQDMANWVMANMAPENVADASLKQGIALAQSRYWRIGSMYQGLGWEMLNWPVEANTVVEGSDSKVALAPLPVAEVNPPAPPVKASWVHKTGSTGGFGSYVAFIPEKQIGIVMLANTSYPNPARVEAAYHILEALQHHHHHH
notes: also called pCB04; pCB04 (WT)
B3: biotinylated peptide CK37281 (peptide)
peptide: ACYNLYGWTC
modifications: cysteine pairing not given here; also: biotinylated (site not given here)
notes: Synthetic peptide (FMOC chemistry, SynPep)
B4: 2BBIck81 (designed binder)
chain: DDESSKPCCDQCACTKSNPPQCRCSDMRLNSCHSACKSCACYNLYGWTCFCVDITDFCYEPCKPSEDDKEN
notes: also called free 2BBIck81; 2BBlck81

What was measured:
BSA [1] = molecular target: T1, BSA (UniProt P02769 25-607); experiment: phage ELISA, equivalent amounts of phage, anti-M13-HRP, ABTS, A405 after 30 min (n=3)
Protocol: (§1) Equivalent amounts of phage were evaluated to determine their relative binding affinity to hVEGF₁₆₅. […] Target-bound phage were detected with anti-M13-HRP.

BSA [2] = molecular target: T1, BSA; experiment: phage ELISA, anti-M13-HRP, ABTS, A405
Protocol: as §1

human VEGF165 [3] = molecular target: T2, human VEGF165 (human, UniProt P15692-4 27-191); experiment: bound beta-lactamase activity (nitrocefin, mOD/min) on hVEGF165 coated wells after washing
T2 construct: Bought protein; panning target, amine-coupled to CM5 chips for BIAcore, coated on plates; also called hVEGF165; hVEGF

human VEGF165 [4] = molecular target: T2, human VEGF165; experiment: SPR (BIAcore 3000), VEGF165 coupled to CM5, peptide injected, TNF-alpha reference lane; two state reaction model with conformation change; overall KD of the two state fit
Protocol: (§2) Affinities of the peptides for VEGF were measured using a BIAcore™-3000 surface plasmon resonance system (Biacore). A CM5 sensor chip was conditioned with 50 mM NaOH, 0.1% HCl, 0.1% SDS, and 0.08% H₃PO₄, and activated for covalent coupling of VEGF using N-ethyl-N′-(3-dimethylaminopropyl)-carbodiimide hydrochloride (EDC) and N-hydroxysuccinimide (NHS) according to the supplier's instructions (Biacore). Human VEGF₁₆₅ (Biosource) was diluted to 5 μg/ml in 20 mM sodium acetate, pH 4.8 and injected at a flow rate of 2 μl/min to achieve approximately 1000 to 6000 response units (RU) of coupled protein. TNF-alpha (human TNF-alpha, Biosource, Int., Camarillo, Calif.) was similarly coupled to the CM5 sensor chip to approximately 850 to 3500 RU in the reference lane. A solution of 1 M ethanolamine was injected as a blocking agent. In some experiments, an additional solution of EDC and NHS were injected to improve baseline stability and a solution of 1 M ethanolamine injected as a blocking agent. The reference lane was activated with EDC and NHS and blocked with ethanolamine.

human VEGF165 [5] = molecular target: T2, human VEGF165; experiment: SPR (BIAcore 3000), VEGF165 coupled to CM5, peptide injected, TNF-alpha reference lane; two state reaction model with conformation change; first step of the two state fit (kd1)
Protocol: as §2

human VEGF165 [6] = molecular target: T2, human VEGF165; experiment: SPR (BIAcore 3000), VEGF165 coupled to CM5, peptide injected, TNF-alpha reference lane; two state reaction model with conformation change; first step of the two state fit (ka1)
Protocol: as §2

[7] = molecular target: T3, VegF (PeproTech), labeled with biotin (UniProt P15692-4 27-191, limits assumed, biotin label (site not stated)); experiment: ECL competition assay (BioVeris): biotinylated VegF on streptavidin beads, competitor ECL labeled Anti-VegF antibody
T3 construct: Captured on streptavidin coated beads in the BioVeris ECL assay; also called biotinylated VegF
T3 sequence (P15692 other isoform, or with tags, fused parts or gaps limits assumed): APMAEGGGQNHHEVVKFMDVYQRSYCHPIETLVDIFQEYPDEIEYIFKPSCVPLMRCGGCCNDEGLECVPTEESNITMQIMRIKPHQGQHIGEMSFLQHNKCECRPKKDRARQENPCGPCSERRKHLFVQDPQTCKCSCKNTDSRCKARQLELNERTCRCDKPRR

T1 sequence (P02769 25-607 limits assumed): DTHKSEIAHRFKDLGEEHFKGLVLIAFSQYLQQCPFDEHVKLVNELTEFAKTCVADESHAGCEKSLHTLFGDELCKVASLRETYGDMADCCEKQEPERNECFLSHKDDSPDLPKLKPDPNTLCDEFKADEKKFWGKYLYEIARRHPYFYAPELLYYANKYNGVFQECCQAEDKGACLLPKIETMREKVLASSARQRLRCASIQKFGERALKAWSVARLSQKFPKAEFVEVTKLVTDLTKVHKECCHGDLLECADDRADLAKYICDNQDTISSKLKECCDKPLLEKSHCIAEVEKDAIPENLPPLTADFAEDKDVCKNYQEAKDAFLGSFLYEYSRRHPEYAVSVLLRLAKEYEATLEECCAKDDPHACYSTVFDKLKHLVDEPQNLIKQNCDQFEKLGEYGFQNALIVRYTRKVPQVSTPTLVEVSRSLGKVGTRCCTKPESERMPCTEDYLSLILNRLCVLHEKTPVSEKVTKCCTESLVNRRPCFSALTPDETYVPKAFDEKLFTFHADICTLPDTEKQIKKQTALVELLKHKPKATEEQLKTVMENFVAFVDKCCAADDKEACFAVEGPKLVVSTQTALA
T2 sequence (P15692 other isoform, or with tags, fused parts or gaps limits assumed): as the sequence (P15692 other isoform, or with tags, fused parts or gaps limits assumed) above

Row | Binder | binding result (BSA [1]) | also measured
1 | TLWPSYW (tested as whole phage) [SEQ ID NO 7] | no binding | –
2 | NLWPHFW (tested as whole phage) [SEQ ID NO 3] | no binding | –
3 | APWNSHI (tested as whole phage) [SEQ ID NO 5] | no binding | –
4 | APWNLHI (tested as whole phage) [SEQ ID NO 6] | – | binding result (BSA [2]): no binding
5 | B1 | no binding | –
6 | SLWPAFW (tested as whole phage) [SEQ ID NO 4] | no binding | –
7 | HLAPSAV (tested as whole phage) [SEQ ID NO 13] | no binding | –
8 | B2 | – | binding result (human VEGF165 [3]): no binding (tested: about 40 uM)
9 | B3 | – | Kd (human VEGF165 [4]): 1920 nM; koff (human VEGF165 [5]): 0.0122 s⁻¹; kon (human VEGF165 [6]): 2840 M⁻¹ s⁻¹
10 | TLWPTFW (tested as whole phage) [SEQ ID NO 2] | no binding | –
11 | B4 | – | IC50 (read off the curve) [7]: ~3000 nM
